Measured values taken from article PMC4504005 (2015).
Values joined by “and” are separate entries in the source; they are usually repeats but may differ in a detail not shown here. Equal values may be shown once. Ends that are not written are not given here.

Assays:
[1] = target: MBP-RAMP2 ECD [L106R]-(GSA)3-CLR ECD-H6 tethered fusion protein (UniProt O60895 43-143, L106R)
[2] = target: wild-type tethered MBP-RAMP2 ECD-CLR ECD fusion protein (UniProt O60895 43-143)
[3] = target: MBP-RAMP1 ECD-(GSA)3-CLR ECD-H6 tethered fusion protein (UniProt O60894 27-118)

IC50 [1] | IC50 [2] | IC50 [3] | Binder
5.37 µM and 12.9 µM | 4.79 µM | – | TVQKLAHQIYQFTDKDKDNVAPRSKISPQGY-NH2 [AM(22–52)NH2]
– | – | 0.575 µM | FVPTDVGPFAY-NH2 [CGRPmut [F37Y]]
